Data on one molecule can be found in US20180148504A1.

The target in test [1] is recombinant purified FRα (ECL assay calibrator) (human) (UniProt P15328). Briefly: ECL sandwich capture 19D4.B7 / detection 5C12.H8; calibrator incubated overnight with 10 µg/mL MORAb-003.
The target is the same in test [2]. Briefly: ECL sandwich capture 19D2.G9 / detection 30G6.G6.G4.E9; calibrator incubated overnight with 10 µg/mL MORAb-003.
Test [3] has the same target. Nature of the test: ECL sandwich capture 26A9.C4 / detection 19D4.B7; calibrator incubated overnight with 10 µg/mL MORAb-003.
Test [4] concerns the target endogenous folate receptor alpha in human serum and plasma samples (human) (UniProt P15328). Briefly: ECL sandwich capture 19D4.B7 / detection 1A8.G11.E7; serum incubated overnight with 10 µg/mL MORAb-003.
The target of test [5] is recombinant purified FRα (ECL assay calibrator) (human) (UniProt P15328). Briefly: ECL sandwich capture 24H8.D3 / detection 6A2.G7; calibrator incubated overnight with 10 µg/mL MORAb-003.
Test [6] shares this target. Briefly: ECL sandwich capture 6A2.G7 / detection 24H8.F3; calibrator incubated overnight with 10 µg/mL MORAb-003.
Test [7] has the same target. Briefly: ECL sandwich capture 6A2.G7 / detection 1C6.E12.G8; calibrator incubated overnight with 10 µg/mL MORAb-003.
For test [8] the target is unchanged. Briefly: ECL sandwich capture 1D2.G8.G10 / detection 19D4.B7; calibrator incubated overnight with 10 µg/mL MORAb-003.
Test [9] has the same target. Briefly: ECL sandwich capture 24H8.F3 / detection 19D4.B7; calibrator incubated overnight with 10 µg/mL MORAb-003.
For test [10] the target is unchanged. Nature of the test: ECL sandwich capture 1D2.G8.G10 / detection 30G6.G6.G4.E9; calibrator incubated overnight with 10 µg/mL MORAb-003.
Test [11] concerns the target endogenous folate receptor alpha in human serum and plasma samples (human) (UniProt P15328). Nature of the test: ECL sandwich capture 1A8.G11.E7 / detection 24H8.F3; serum incubated overnight with 10 µg/mL MORAb-003.
The target of test [12] is recombinant purified FRα (ECL assay calibrator) (human) (UniProt P15328). Briefly: ECL sandwich competition; competitors 9F3 capture / 24F12 detection; FRα standard STD08; MORAb-003 50 µg/mL.
Test [13] has the same target. Briefly: ECL sandwich competition; competitors 9F3 capture / 24F12 detection; FRα standard STD08; MORAb-003 10 µg/mL.
In test [14] the target is endogenous folate receptor alpha in human serum and plasma samples (human) (UniProt P15328). Briefly: ECL sandwich capture 6A2.G7 / detection 1C6.E12.G8; serum incubated overnight with 10 µg/mL MORAb-003.
endogenous folate receptor alpha in human serum and plasma samples (human), sequence (P15328 25-234 limits assumed, form in doubt): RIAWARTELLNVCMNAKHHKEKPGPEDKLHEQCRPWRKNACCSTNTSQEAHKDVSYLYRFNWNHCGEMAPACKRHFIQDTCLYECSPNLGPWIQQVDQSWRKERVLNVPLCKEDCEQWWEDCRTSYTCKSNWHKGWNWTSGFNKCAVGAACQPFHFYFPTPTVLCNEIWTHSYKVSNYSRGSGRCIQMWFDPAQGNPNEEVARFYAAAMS
Test [15] has the same target. Briefly: ECL sandwich competition; competitors 24H8.D3 capture / 19D4.B7 detection; serum of sample #DLSO-015; MORAb-003 100 µg/mL.
The target in test [16] is recombinant purified FRα (ECL assay calibrator) (human) (UniProt P15328). Briefly: ECL sandwich capture 30G6.G6.G4.E9 / detection 19D2.G9; calibrator incubated overnight with 10 µg/mL MORAb-003.
The target of test [17] is endogenous folate receptor alpha in human serum and plasma samples (human) (UniProt P15328). Briefly: ECL sandwich capture 26A9.C4 / detection 19D4.B7; serum incubated overnight with 10 µg/mL MORAb-003.
Test [18] shares this target. Nature of the test: ECL sandwich, positive control +CONT: capture 26B3.F2 (f1) / detection 19D4.B7; serum incubated overnight with 10 µg/mL MORAb-003.
For test [19], the target named is recombinant purified FRα (ECL assay calibrator) (human) (UniProt P15328). Briefly: ECL sandwich capture 6A2.G7 / detection 1D2.G8.G10; calibrator incubated overnight with 10 µg/mL MORAb-003.
The target is the same in test [20]. Nature of the test: ECL sandwich capture 30G6.G6.G4.E9 / detection 28H12.G9; calibrator incubated overnight with 10 µg/mL MORAb-003.
Test [21] shares this target. Briefly: ECL sandwich capture 1A8.G11.E7 / detection 6A2.G7; calibrator incubated overnight with 10 µg/mL MORAb-003.
The target is the same in test [22]. Nature of the test: ECL sandwich capture 6A2.G7 / detection 2F11.F8; calibrator incubated overnight with 10 µg/mL MORAb-003.
Test [23] addresses endogenous folate receptor alpha in human serum and plasma samples (human) (UniProt P15328). Briefly: ECL sandwich capture 24H8.F3 / detection 19D4.B7; serum incubated overnight with 10 µg/mL MORAb-003.
Test [24] has the same target. Briefly: ECL sandwich capture 24H8.D3 / detection 19D4.B7; serum incubated overnight with 10 µg/mL MORAb-003.

recombinant purified FRα (ECL assay calibrator) (human), sequence (P15328 25-234 limits assumed): as the sequence (P15328 25-234 limits assumed, form in doubt) above

B1: farletuzumab (MORAb-003) (antibody, part only; not given: Constant regions, V domains shown, not shown: another chain or arm of the molecule)
VH: EVQLVESGGGVVQPGRSLRLSCSASGFTFSGYGLSWVRQAPGKGLEWVAMISSGGSYTYYADSVKGRFAISRDNAKNTLFLQMDSLRPEDTGVYFCARHGDDPAWFAYWGQGTPVTVSS
VL: DIQLTQSPSSLSASVGDRVTITCSVSSSISSNNLHWYQQKPGKAPKPWIYGTSNLASGVPSRFSGSGSGTDYTFTISSLQPEDIATYYCQQWSSYPYMYTFGQGTKVEIK
In the case of B1, the Drug Suppression of Cal Signal at 500 pg/mL is -10% in test [1]; -4% in test [2]; 72% in test [3]; -15% in [5]; -5% in test [6]; 6% in [7]. For the same molecule, the Drug Suppression of Cal Signal at 500 pg/mL is -12% in test [8]; 9% in test [9]; -11% in [10]; -5% in [16]; -7% in test [19]; -15% in test [20]. Further, the Drug Suppression of Cal Signal at 500 pg/mL is 16% in test [21] and -4% in test [22]. Also, the Drug suppression of serum is -4.92% in test [4]; -61.3% in [11]; -22.2% in test [14]; -59.7% in test [17]; 12.1% in test [18]; -13% in [23]. In test [24], the Drug suppression of serum was -2.8%. In addition, the % of signal without MORAb-003 (MORAb-003 interference) in [12] turned out to be 115%; in test [13] it was 121%. Besides, in [15], the percent inhibition (sample #DLSO-015, serum) is 21%.
